Measured values as given in patent US6541002.

T1: Vpr protein of HIV-1, P12520
T1 chain: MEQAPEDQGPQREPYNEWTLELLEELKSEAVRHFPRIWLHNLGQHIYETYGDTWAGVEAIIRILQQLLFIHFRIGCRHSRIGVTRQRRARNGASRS


Biological target: T1, Vpr protein of HIV-1, P12520

Row | Protein | presence of the fusion protein in progeny virions (Western blotting) | CAT activity of virions (conversion of chloramphenicol to an acetylated product)
1 | dWF-IN fusion protein (protein) MQPWWAFFGGGSSWWSFSMGPTRFLDGIDKAQEEHEKYHSNWRAMASDFNLPPVVAKEIVASCDKCQLKGEAMHGQVDCSPGIWQLDCTHLEGKVILVAVHVASGYIEAEVIPAETGQETAYFLLKLAGRWPVKTVHTDNGSNFTSTTVKAACWWAGIKQEFGIPYNPQSQGVIESMNKELKKIIGQVRDQAEHLKTAVQMAVFIHNFKRKGGIGGYSAGERIVDIIATDIQTKELQKQITKIQNFRVYYRDSRDPVWKGPAKLLWKGEGAVVIQDNSDIKVVPRRKAKIIRDYGKQMAGDDCVASRQDED | the presence of dWF-fusion proteins in progeny virions was dependent on expression of Vpr in cells in which the progeny virions were produced | 
2 | dWF-PR-IN fusion protein (protein) MQPWWAFFGGGSSWWSFSMGPTRFLDGIDKAQEEHEKYHSNWRAMASDFNLPPVVAKEIVASCDKCQLKGEAMHGQVDCSPGIWQLDCTHLEGKVILVAVHVASGYIEAEVIPAETGQETAYFLLKLAGRWPVKTVHTDNGSNFTSTTVKAACWWAGIKQEFGIPYNPQSQGVIESMNKELKKIIGQVRDQAEHLKTAVQMAVFIHNFKRKGGIGGYSAGERIVDIIATDIQTKELQKQITKIQNFRVYYRDSRDPVWKGPAKLLWKGEGAVVIQDNSDIKVVPRRKAKIIRDYGKQMAGDDCVASRQDED | the presence of dWF-fusion proteins in progeny virions was dependent on expression of Vpr in cells in which the progeny virions were produced | 
3 | chloramphenicol acetyltransferase (CAT) (protein) MEKKITGYTTVDISQWHRKEHFEAFQSVAQCTYNQTVQLDITAFLKTVKKNKHKFYPAFIHILARLMNAHPEFRMAMKDGELVIWDSVHPCYTVFHEQTETFSSLWSEYHDDFRQFLHIYSQDVACYGENLAYFPKGFIENMFFVSANPWVSFTSFDLNVANMDNFFAPVFTMGKYYTQGDKVLMPLAIQVHHAVCDGFHVGRMLNELQQYCDEWQGGA |  | CAT activity exhibited by virions which were generated by Vpr^-/WF-CAT cells was comparable to CAT activity exhibited by virions which were generated by WT/CAT cells (each 8% conversion
4 | dWF-CAT chimeric protein (protein) MQPWWAFFGGGSSWWSFSMGPTRMEKKITGYTTVDISQWHRKEHFEAFQSVAQCTYNQTVQLDITAFLKTVKKNKHKFYPAFIHILARLMNAHPEFRMAMKDGELVIWDSVHPCYTVFHEQTETFSSLWSEYHDDFRQFLHIYSQDVACYGENLAYFPKGFIENMFFVSANPWVSFTSFDLNVANMDNFFAPVFTMGKYYTQGDKVLMPLAIQVHHAVCDGFHVGRMLNELQQYCDEWQGGA |  | virions which were generated by WT/WF-CAT cells exhibited significantly higher CAT activity (28% conversion of chloramphenicol to an acetylated product) than virions which were generated by Vpr^-/WF-CAT cells (8% conversion)
